# Tests used:
# [1] = target: GST-fusion NaV1.1 IQ domain (amino acids 1909-1936) (human); experiment: pull-down; GST-fusion IQ or mutant (2-4 ug) immobilised on GS-4B; CaM or mutant 0.07-7.0 uM; [Ca2+] 500 nM; 150 mM NaCl, 50 mM Tris pH 8.0, 4 h at 4 C; Coomassie densitometry, one- or two-sites Hill fit; apparent constants
# [2] = target: GST-fusion NaV1.1 IQ domain (amino acids 1909-1936) (human); experiment: pull-down; GST-fusion IQ or mutant (2-4 ug) immobilised on GS-4B; CaM or mutant 0.07-7.0 uM; [Ca2+] 100 nM; 150 mM NaCl, 50 mM Tris pH 8.0, 4 h at 4 C; Coomassie densitometry, one- or two-sites Hill fit; apparent constants
# [3] = target: GST-fusion NaV1.1 IQ domain phosphorylated by CaMKII (human); experiment: pull-down; phosphorylation series (Figure 6, Table 3): GST-IQ on GS-4B beads as control, treated with CaMKIIT286D or with CIP, then CaM 0.07-7 uM; [Ca2+] ≈ free; two-sites Hill fit; apparent constants
# [4] = target: GST-fusion NaV1.1 IQ domain dephosphorylated by CIP (human); experiment: as above
# [5] = target: GST-fusion NaV1.1 IQ domain (amino acids 1909-1936) (human); experiment: as above
# [6] = target: GST-fusion NaV1.1 IQ domain (amino acids 1909-1936) (human); experiment: pull-down; GST-fusion IQ or mutant (2-4 ug) immobilised on GS-4B; CaM or mutant 0.07-7.0 uM; [Ca2+] ≈ free; 150 mM NaCl, 50 mM Tris pH 8.0, 4 h at 4 C; Coomassie densitometry, one- or two-sites Hill fit; apparent constants
# [7] = target: GST-fusion NaV1.1 IQ domain (amino acids 1909-1936) (human); experiment: pull-down; GST-fusion IQ or mutant (2-4 ug) immobilised on GS-4B; CaM or mutant 0.07-7.0 uM; [Ca2+] 2 mM; 150 mM NaCl, 50 mM Tris pH 8.0, 4 h at 4 C; Coomassie densitometry, one- or two-sites Hill fit; apparent constants
# [8] = target: GST-fusion NaV1.1 IQ domain phosphorylated by CaMKII (human); experiment: pull-down; phosphorylation series (Figure 6, Table 3): GST-IQ on GS-4B beads as control, treated with CaMKIIT286D or with CIP, then CaM 0.07-7 uM; [Ca2+] 2 mM; two-sites Hill fit; apparent constants
# [9] = target: GST-fusion NaV1.1 IQ domain dephosphorylated by CIP (human); experiment: as above
# [10] = target: GST-fusion NaV1.1 IQ domain (amino acids 1909-1936) (human); experiment: as above
# [11] = target: GST-fusion NaV1.1 IQ domain phosphorylated by CaMKII (human); experiment: pull-down; phosphorylation series (Figure 6, Table 3): GST-IQ on GS-4B beads as control, treated with CaMKIIT286D or with CIP, then CaM 0.07-7 uM; [Ca2+] 100 nM; two-sites Hill fit; apparent constants
# [12] = target: GST-fusion NaV1.1 IQ domain dephosphorylated by CIP (human); experiment: as above
# [13] = target: GST-fusion NaV1.1 IQ domain (amino acids 1909-1936) (human); experiment: as above
# [14] = target: GST-fusion NaV1.1 IQ domain phosphorylated by CaMKII (human); experiment: pull-down; phosphorylation series (Figure 6, Table 3): GST-IQ on GS-4B beads as control, treated with CaMKIIT286D or with CIP, then CaM 0.07-7 uM; [Ca2+] 500 nM; two-sites Hill fit; apparent constants
# [15] = target: GST-fusion NaV1.1 IQ domain dephosphorylated by CIP (human); experiment: as above
# [16] = target: GST-fusion NaV1.1 IQ domain (amino acids 1909-1936) (human); experiment: as above
substance,measurement,setting,value
"calmodulin (CaM), human, wild type (from UniProt P0DP23 1-149) (natural protein)",Kd1 (site 1 of the two-sites fit),[1],0.0433 µM
same,Kd1 (site 1 of the two-sites fit),[2],0.063 µM
same,Kd2 (site 2 of the two-sites fit),[2],2.91 µM
same,Kd1 (site 1 of the two-sites fit),[3],0.0361 µM
same,Kd2 (site 2 of the two-sites fit),[3],1.44 µM
same,Kd1 (site 1 of the two-sites fit),[4],0.0371 µM
same,Kd2 (site 2 of the two-sites fit),[4],2.03 µM
same,Kd1 (site 1 of the two-sites fit),[5],0.0376 µM
same,Kd2 (site 2 of the two-sites fit),[5],2.49 µM
same,Kd2 (site 2 of the two-sites fit),[6],4.58 µM
same,Kd1 (site 1 of the two-sites fit),[7],0.0682 µM
same,Kd2 (site 2 of the two-sites fit),[7],0.559 µM
same,Kd1 (site 1 of the two-sites fit),[8],0.0473 µM
same,Kd2 (site 2 of the two-sites fit),[8],1.95 µM
same,Kd1 (site 1 of the two-sites fit),[9],0.0383 µM
same,Kd2 (site 2 of the two-sites fit),[9],2.01 µM
same,Kd2 (site 2 of the two-sites fit),[10],1.1 µM
same,Kd1 (site 1 of the two-sites fit),[11],0.0251 µM
same,Kd2 (site 2 of the two-sites fit),[11],3.03 µM
same,Kd1 (site 1 of the two-sites fit),[12],0.0365 µM
same,Kd2 (site 2 of the two-sites fit),[12],1.42 µM
same,Kd2 (site 2 of the two-sites fit),[13],3.09 µM
same,Kd1 (site 1 of the two-sites fit),[14],0.013 µM
same,Kd2 (site 2 of the two-sites fit),[14],8.17 µM
same,Kd2 (site 2 of the two-sites fit),[15],3.95 µM
same,Kd2 (site 2 of the two-sites fit),[16],5.04 µM
